Results from patent US20250011397A1 (HOSPITAL FOR SICK CHILDREN, published 2025).
Changes are numbered by the printed parent chain. Values joined by “and” are separate entries in the source; they are usually repeats but may differ in a detail not shown here. Equal entries are not always repeated.

B1: MB 178 (other)
heavy: QVQLVQSGAEVKKPGASVKVSCKASGYTFTDYHMHWVRQAPGQGLEWMGWINPNSGGTNYAQKFQGRVTMTRDTSTSTVYMELSSLRSEDTAVYYCARDISSWYEITKFDPWGQGTLVTVSSASTKGPSVFPLAPSSKSTSGGTAALGCLVKDYFPEPVTVSWNSGALTSGVHTFPAVLQSSGLYSLSSVVTVPSSSLGTQTYICNVNHKPSNTKVDKKVEPKSC
light: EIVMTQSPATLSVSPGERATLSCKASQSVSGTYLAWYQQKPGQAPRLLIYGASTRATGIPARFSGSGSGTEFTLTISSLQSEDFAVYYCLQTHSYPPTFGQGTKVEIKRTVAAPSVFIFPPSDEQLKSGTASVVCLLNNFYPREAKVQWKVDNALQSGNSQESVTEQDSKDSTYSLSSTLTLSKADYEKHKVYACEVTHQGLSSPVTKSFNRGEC
B2: MB 128 (other)
heavy: QVQLVQSGAEVKKPGASVKVSCKASGYTFTHYYMHWVRQAPGQGLEWMGIINPSSSSASYSQKFQGRVTMTRDTSTSTVYMELSSLRSEDTAVYYCARDGRYGSGSYPFDYWGQGTLVTVSSASTKGPSVFPLAPSSKSTSGGTAALGCLVKDYFPEPVTVSWNSGALTSGVHTFPAVLQSSGLYSLSSVVTVPSSSLGTQTYICNVNHKPSNTKVDKKVEPKSC
light: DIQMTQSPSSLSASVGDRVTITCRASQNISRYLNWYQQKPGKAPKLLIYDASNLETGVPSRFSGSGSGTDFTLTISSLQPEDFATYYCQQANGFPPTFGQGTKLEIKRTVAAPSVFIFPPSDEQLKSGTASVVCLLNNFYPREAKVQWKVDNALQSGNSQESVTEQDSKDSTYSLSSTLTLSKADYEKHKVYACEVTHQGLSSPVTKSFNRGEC
B3: mAb 128 (antibody, V domains shown)
VH: QVQLVQSGAEVKKPGASVKVSCKASGYTFTHYYMHWVRQAPGQGLEWMGIINPSSSSASYSQKFQGRVTMTRDTSTSTVYMELSSLRSEDTAVYYCARDGRYGSGSYPFDYWGQGTLVTVSS
VL: DIQMTQSPSSLSASVGDRVTITCRASQNISRYLNWYQQKPGKAPKLLIYDASNLETGVPSRFSGSGSGTDFTLTISSLQPEDFATYYCQQANGFPPTFGQGTKLEIKR
B4: MB 56 (other)
heavy: QVQLVQSGAEVKKPGASVKVSCKASGYTFTSYGISWVRQAPGQGLEWMGWISAYNGNTNYAQKLQGRVTMTRDTSTSTVYMELSSLRSEDTAVYYCARDIGPIDYWGQGTLVTVSSASTKGPSVFPLAPSSKSTSGGTAALGCLVKDYFPEPVTVSWNSGALTSGVHTFPAVLQSSGLYSLSSVVTVPSSSLGTQTYICNVNHKPSNTKVDKKVEPKSC
light: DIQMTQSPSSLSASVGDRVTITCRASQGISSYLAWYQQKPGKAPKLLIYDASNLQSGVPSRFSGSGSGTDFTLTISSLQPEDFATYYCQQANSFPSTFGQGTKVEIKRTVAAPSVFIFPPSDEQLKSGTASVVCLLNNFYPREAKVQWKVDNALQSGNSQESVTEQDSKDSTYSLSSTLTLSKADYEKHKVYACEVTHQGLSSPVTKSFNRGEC
B5: MB 349 (other)
heavy: EVQLLESGGGLVQPGGSLRLSCAASGFTFSNYGMHWVRQAPGKGLEWVSGISSAGSITNYADSVKGRFTISRDNSKNTLYLQMNSLRAEDTAVYYCAGNHAGTTVTSEYFQHWGQGTLVTVSSASTKGPSVFPLAPSSKSTSGGTAALGCLVKDYFPEPVTVSWNSGALTSGVHTFPAVLQSSGLYSLSSVVTVPSSSLGTQTYICNVNHKPSNTKVDKKVEPKSC
light: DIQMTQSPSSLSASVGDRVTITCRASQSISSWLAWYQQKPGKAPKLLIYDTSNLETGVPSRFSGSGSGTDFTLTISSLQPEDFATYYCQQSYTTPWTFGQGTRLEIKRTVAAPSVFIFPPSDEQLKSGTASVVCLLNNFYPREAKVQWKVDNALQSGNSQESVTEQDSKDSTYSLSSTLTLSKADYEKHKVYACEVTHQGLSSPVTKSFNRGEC
B6: MB 108 (other)
heavy: QVQLVQSGAEVKKPGASVKVSCKASGYIFSRYAIHWVRQAPGQGLEWMGWMNPISGNTDYAPNFQGRVTMTRDTSTSTVYMELSSLRSEDTAVYYCAKDGSQLAYLVEYFQHWGQGTLVTVSSASTKGPSVFPLAPSSKSTSGGTAALGCLVKDYFPEPVTVSWNSGALTSGVHTFPAVLQSSGLYSLSSVVTVPSSSLGTQTYICNVNHKPSNTKVDKKVEPKSC
light: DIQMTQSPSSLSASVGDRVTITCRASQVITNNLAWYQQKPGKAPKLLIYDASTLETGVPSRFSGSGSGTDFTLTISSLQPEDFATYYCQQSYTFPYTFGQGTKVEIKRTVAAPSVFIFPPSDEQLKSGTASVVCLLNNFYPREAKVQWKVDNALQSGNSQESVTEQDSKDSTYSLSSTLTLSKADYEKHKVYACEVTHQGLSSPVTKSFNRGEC
B7: MB 160 (other)
heavy: QVQLVQSGAEVKKPGASVKVSCKASGYTFTGHDMHWVRQAPGQGLEWMGIINPSGGSTSYAQKFQGRVTMTRDTSTSTVYMELSSLRSEDTAVYYCARANSLRYYYGMDVWGQGTMVTVSSASTKGPSVFPLAPSSKSTSGGTAALGCLVKDYFPEPVTVSWNSGALTSGVHTFPAVLQSSGLYSLSSVVTVPSSSLGTQTYICNVNHKPSNTKVDKKVEPKSC
light: DIQMTQSPSSLSASVGDRVTITCRASQSVSSWLAWYQQKPGKAPKLLIYAASSLQSGVPSRFSGSGSGTDFTLTISSLQPEDFATYYCQQGYTTPYTFGQGTKLEIKRTVAAPSVFIFPPSDEQLKSGTASVVCLLNNFYPREAKVQWKVDNALQSGNSQESVTEQDSKDSTYSLSSTLTLSKADYEKHKVYACEVTHQGLSSPVTKSFNRGEC
B8: MB 192 (other)
heavy: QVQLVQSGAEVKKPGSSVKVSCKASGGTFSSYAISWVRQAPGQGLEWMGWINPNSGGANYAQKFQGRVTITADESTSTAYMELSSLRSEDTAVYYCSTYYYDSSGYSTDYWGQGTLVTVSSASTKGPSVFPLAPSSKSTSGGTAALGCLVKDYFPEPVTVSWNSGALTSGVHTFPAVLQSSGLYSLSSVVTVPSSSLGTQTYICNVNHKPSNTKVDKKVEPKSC
light: DIVMTQSPLSLPVTPGEPASISCRSSQSLLHSNGYNYLDWYLQKPGQSPQLLIYAASSLQSGVPDRFSGSGSGTDFTLKISRVEAEDVGVYYCMQALQTPYTFGQGTKLEIKRTVAAPSVFIFPPSDEQLKSGTASVVCLLNNFYPREAKVQWKVDNALQSGNSQESVTEQDSKDSTYSLSSTLTLSKADYEKHKVYACEVTHQGLSSPVTKSFNRGEC
B9: MB 158 (other)
heavy: QVQLVQSGAEVKKPGASVKVSCKASGYTFTGYYMHWVRQAPGQGLEWMGWINPLNGGTNFAPKFQGRVTMTRDTSTSTVYMELSSLRSEDTAVYYCARDPGGSYSNDAFDIWGQGTLVTVSSASTKGPSVFPLAPSSKSTSGGTAALGCLVKDYFPEPVTVSWNSGALTSGVHTFPAVLQSSGLYSLSSVVTVPSSSLGTQTYICNVNHKPSNTKVDKKVEPKSC
light: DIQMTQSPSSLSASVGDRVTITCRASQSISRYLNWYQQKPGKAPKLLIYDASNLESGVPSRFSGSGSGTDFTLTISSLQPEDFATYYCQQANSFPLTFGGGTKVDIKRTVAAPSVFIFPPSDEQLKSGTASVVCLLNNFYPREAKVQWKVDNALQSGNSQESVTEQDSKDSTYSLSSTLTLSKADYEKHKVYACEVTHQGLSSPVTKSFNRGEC
B10: MB 180 (other)
heavy: QVQLVQSGAEVKKPGSSVKVSCKASGYTFTSYAMHWVRQAPGQGLEWMGRISPRSGGTKYAQRFQGRVTITADESTSTAYMELSSLRSEDTAVYYCAREAVAGTHPQAGDFDLWGRGTLVTVSSASTKGPSVFPLAPSSKSTSGGTAALGCLVKDYFPEPVTVSWNSGALTSGVHTFPAVLQSSGLYSLSSVVTVPSSSLGTQTYICNVNHKPSNTKVDKKVEPKSC
light: B8 light with M94Q, A96Y, L97Y, Q98S, T99S
B11: MB 254 (other)
heavy: EVQLLESGGGLVQPGGSLRLSCAASGFTFSSSAMHWVRQAPGKGLEWVSAIGTGGDTYYADSVKGRFTISRDNSKNTLYLQMNSLRAEDTAVYYCAREGDGYNFYFDYWGQGTLVTVSSASTKGPSVFPLAPSSKSTSGGTAALGCLVKDYFPEPVTVSWNSGALTSGVHTFPAVLQSSGLYSLSSVVTVPSSSLGTQTYICNVNHKPSNTKVDKKVEPKSC
light: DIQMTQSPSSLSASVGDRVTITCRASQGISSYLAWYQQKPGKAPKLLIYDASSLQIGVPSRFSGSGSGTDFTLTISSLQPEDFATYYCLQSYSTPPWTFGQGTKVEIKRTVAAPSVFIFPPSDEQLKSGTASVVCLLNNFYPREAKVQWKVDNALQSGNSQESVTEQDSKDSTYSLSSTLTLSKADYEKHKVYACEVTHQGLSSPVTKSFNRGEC
B12: MB 120 (other)
heavy: QVQLVQSGAEVKKPGASVKVSCKASGYTFTSYDINWVRQAPGQGLEWMGMIDPSGGSTSYAQKFQGRVTMTRDTSTSTVYMELSSLRSEDTAVYYCAKDFGGGTRYDYWYFDLWGRGTLVTVSSASTKGPSVFPLAPSSKSTSGGTAALGCLVKDYFPEPVTVSWNSGALTSGVHTFPAVLQSSGLYSLSSVVTVPSSSLGTQTYICNVNHKPSNTKVDKKVEPKSC
light: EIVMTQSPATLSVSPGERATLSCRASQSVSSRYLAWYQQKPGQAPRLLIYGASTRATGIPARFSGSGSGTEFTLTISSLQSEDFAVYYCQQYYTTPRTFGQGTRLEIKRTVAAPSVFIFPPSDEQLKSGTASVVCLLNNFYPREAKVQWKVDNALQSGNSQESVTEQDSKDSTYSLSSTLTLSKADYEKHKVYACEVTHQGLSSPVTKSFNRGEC
B13: mAb 56 (antibody, V domains shown)
VH: QVQLVQSGAEVKKPGASVKVSCKASGYTFTSYGISWVRQAPGQGLEWMGWISAYNGNTNYAQKLQGRVTMTRDTSTSTVYMELSSLRSEDTAVYYCARDIGPIDYWGQGTLVTVSS
VL: B3 VL with N28G, R31S, N34A, E55Q, T56S, G93S, P96S, L104V
notes: also called IgG 56

Target: T1, SARS-CoV-2 Spike on HIV-based pseudotyped virus (Spike plasmid BEI NR52310) (SARS-CoV-2, UniProt P0DTC2 14-1273)
Assay: cell-based or functional assay

Q: For B1, which “IC50 SARS-CoV2 PsV (µg/mL), MB” value is on record?
A: Its value is 1.7 µg/mL.

Q: For B2, which “IC50 SARS-CoV2 PsV (µg/mL), MB” value is on record?
A: The value was 3.5 µg/mL.

Q: Which “IC50 SARS-CoV2 PsV (µg/mL), IgG” value does the source give for B3 here?
A: Its value is over 50 µg/mL.

Q: Which “IC50 SARS-CoV2 PsV (µg/mL), MB” value does the source give for B4 here?
A: Its value is over 50 µg/mL.

Q: B5 was tested. Which “IC50 SARS-CoV2 PsV (µg/mL), MB” value did it give?
A: Its value is over 50 µg/mL.

Q: How did the “IC50 SARS-CoV2 PsV (µg/mL), MB” value turn out when B6 was run?
A: The value was 0.37 µg/mL.

Q: With B7 as the binder, how does the “IC50 SARS-CoV2 PsV (µg/mL), MB” value read?
A: Its value is 0.22 µg/mL.

Q: B8 was tested. Which “IC50 SARS-CoV2 PsV (µg/mL), MB” value did it give?
A: The value was 0.79 µg/mL.

Q: For B9, which “IC50 SARS-CoV2 PsV (µg/mL), MB” value is on record?
A: Its value is 0.1 µg/mL.

Q: How did the “IC50 SARS-CoV2 PsV (µg/mL), MB” value turn out when B10 was run?
A: The value was 0.89 µg/mL.

Q: Which “IC50 SARS-CoV2 PsV (µg/mL), MB” value does the source give for B11 here?
A: The value was 9.3 µg/mL.

Q: With B12 as the binder, how does the “IC50 SARS-CoV2 PsV (µg/mL), MB” value read?
A: The value was 7.2 µg/mL.

Q: How did the “IC50 SARS-CoV2 PsV (µg/mL), IgG” value turn out when B13 was run?
A: Its value is over 50 µg/mL.

Target: T1, SARS-CoV-2 Spike on HIV-based …
Assay: cell-based or functional assay
Remark: another data set of the same source

Q: B1 was tested. Which “Median IC50 (PsV neutralization)” value did it give?
A: Its value is 1.7 µg/mL and 0.74 nM.

Q: Which “Median IC50 (PsV neutralization)” value does the source give for B2 here?
A: Its value is 1.5 nM and 3.5 µg/mL.

Q: With B3 as the binder, how does the “Median IC50 (PsV neutralization)” value read?
A: The value was > 50 µg/mL and > 333 nM.

Q: For B4, which “Median IC50 (PsV neutralization)” value is on record?
A: Its value is > 50 µg/mL and > 0.33 µM.

Q: How did the “Median IC50 (PsV neutralization)” value turn out when B5 was run?
A: The value was > 50 µg/mL and > 0.33 µM.

Q: For B6, which “Median IC50 (PsV neutralization)” value is on record?
A: Its value is 0.37 µg/mL and 161 pM.

Q: Which “Median IC50 (PsV neutralization)” value does the source give for B7 here?
A: The value was 0.22 µg/mL and 96 pM.

Q: With B8 as the binder, how does the “Median IC50 (PsV neutralization)” value read?
A: The value was 0.79 µg/mL and 343 pM.

Q: How did the “Median IC50 (PsV neutralization)” value turn out when B9 was run?
A: The value was 0.1 µg/mL and 43 pM.

Q: B10 was tested. Which “Median IC50 (PsV neutralization)” value did it give?
A: Its value is 0.89 µg/mL and 387 pM.

Q: With B11 as the binder, how does the “Median IC50 (PsV neutralization)” value read?
A: Its value is 9.3 µg/mL and 4 nM.

Q: Which “Median IC50 (PsV neutralization)” value does the source give for B12 here?
A: The value was 7.2 µg/mL and 3.1 nM.

Q: B13 was tested. Which “Median IC50 (PsV neutralization)” value did it give?
A: The value was > 50 µg/mL and > 333 nM.
